Test results taken from patent US20100202970A1.

Experiments:
[1] = target: PKC substrate C-terminally tagged with the yellow fluorescent protein YPet; assay: cell-based or functional assay
[2] = target: PKA substrate (modified Kemptide containing a consensus phosphorylation site for Protein Kinase A) C-terminally tagged with the yellow fluorescent protein YPet; assay: cell-based or functional assay

increase in yellow/cyan emission ratio (intermolecular FRET) after PMA in 1205-Lu cells co-expressing both constructs [1]: 30%
increase in yellow/cyan emission ratio (intermolecular FRET) after Forskolin in 1205-Lu cells co-expressing both constructs [2]: 60%
Substance: FHA1 (forkhead associated domain 1 of the yeast protein Rad53) tagged at its N-terminus with the cyan fluorescent protein Cerulean (from UniProt P22216 22-162)
